The source of these data is US20230365696A1 (SYNTHEKINE, published 2023).

The target in test [1] is T1, extracellular domain of hIFNgR1 (human, UniProt P15260 18-245).
T1 construct: also called hIFNgR1 ECD; human IFNgR1
T1 sequence: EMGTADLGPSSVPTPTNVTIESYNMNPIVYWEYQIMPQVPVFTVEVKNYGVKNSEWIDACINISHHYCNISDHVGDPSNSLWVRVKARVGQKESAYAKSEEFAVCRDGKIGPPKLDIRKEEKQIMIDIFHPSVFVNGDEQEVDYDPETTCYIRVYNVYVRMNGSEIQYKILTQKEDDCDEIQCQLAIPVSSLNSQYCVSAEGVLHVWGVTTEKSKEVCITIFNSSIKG
Put plainly: flow cytometry.

In test [2] the target is T2, extracellular domain of mIFNgR1 (mouse, UniProt P15261 26-254).
T2 construct: also called mIFNgR1 ECD; mouse IFNgR1
T2 sequence: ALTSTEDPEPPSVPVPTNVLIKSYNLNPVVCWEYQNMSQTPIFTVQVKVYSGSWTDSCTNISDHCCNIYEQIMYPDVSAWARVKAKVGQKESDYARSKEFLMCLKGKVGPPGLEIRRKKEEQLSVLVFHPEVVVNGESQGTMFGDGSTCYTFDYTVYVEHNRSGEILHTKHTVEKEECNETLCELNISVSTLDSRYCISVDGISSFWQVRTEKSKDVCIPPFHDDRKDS
The test can be described thus: flow cytometry, cross-reactivity. For orientation: In flow cytometry, cells or beads pass a laser one at a time.

Test [3] deals with T1, extracellular domain of hIFNgR1. The test can be described thus: periplasmic extract ELISA on coated antigen. Here is the method: Upon completion of the biopanning of Example 3, three 96-well plates of individual phage clones were isolated in order to perform periplasmic extract ELISA (PE-ELISA) on IFNgR1 coated plates to identify positive VHH binders that selectively bound IFNgR1. A 96-well plate was coated with IFNgR1 and PBS under the same conditions. Next, wells were blocked at 37° C. for 1 h. Then, […] was added to each well and incubated for 1 h. Subsequently, 100 μl of anti-tag polyclonal antibody conjugated to HRP was added to each well and incubated at 37° C. for 1 h. Plates were developed with TMB substrate. The reaction was stopped by the addition of H2SO4. Absorbance at 450 nm was read on a microtiter plate reader. Antibodies with absorbance of the antigen-coated well at least threefold greater than PBS-coated control were considered to provide specific binding to IFNgR1. Positive clones were sequenced, and sequences analyzed to identify unique clonotypes
In general terms: ELISA stands for enzyme-linked immunosorbent assay.

B1: DR911 (VHH)
VHH: EVQLVESGGALVQAGGSLRLSCTVSGRSFSTYAMAWFRRAPGKERELVSAITVGGGSTYYVDSVKGRFTISRENAKNTLYLQMNNLKPEDTAIYICAARDYRRRSYAPEAEQYDYWGQGTQVTVSS
notes: also called hIFNgR1 VHH
Regarding B1, the binding result in test [1] and in test [2] was “binds” each time.

B2: DR922 (VHH)
VHH: QVQLVESGGGLVRAGGSLRLSCAASGSITSINTMGWFRQAPGKQRELVAAITSGGSTNYADSVKGRFTISRDNARNTVYLQMYSLKPEDTAVYYCEADSMYFRGQGTQVTVSS
notes: also called hIFNgR1 VHH
Consider B2, for which the binding result in test [2] and in test [3] was “binds” in each case.

B3: DR923 (VHH)
VHH: QVQLVESGGGLVQAGGSLRLSCAASRRTFMTYAMGWFRQAPGKEREFVAAISWSSGSTYYADSVKGRFTISRDNAKNTMYLQMNSLKPEDTAVYYCTASSIATMYGPNDYAGQGTLVTVSS
notes: also called hIFNgR1 VHH
Regarding B3, the binding result in test [2] and in test [3] was “binds” throughout.

B4: DR918 (VHH)
VHH: EVQLVESGGGLVQAGGSLRLSCATSGLTDSTYGMAWFRQAPGKEREFVAAISRAGGSADHADSVKGRFTVSRDNAKKMVYLQMNSLKPEDTAVYYCASGRSYSSPYDYFNALAYSYWGQGTQVTVSS
notes: also called hIFNgR1 VHH
On to B4, for which the binding result in test [2] and in test [3] was “binds” in each case.

B5: DR925 (VHH)
VHH: EVQLVESGGGLVQAGGSLVLSCAASGRTFSRYAMGWFRQAPGKEREFVAAISIGGGSADYADTVKGRFTISRNNAKNTMYLQMNSLKPEDTAVYYCAARTPRPSSSYFTPQDYEYWGQGTLVTVSS
notes: also called hIFNgR1 VHH
B5: the binding result in test [2] and in test [3] was “binds” in each case.

B6: DR917 (VHH)
VHH: EVQLVESGGGLVQAGGSLRLSCAASGRTFSGYNMGWFRQAPGKEREFVAAIAWAGSRTYYTDSVKGRFTISRDNAKNTMYLQMNTLRPEDTAVYYCAAHDETYYRLDRVDLYTHWGQGTLVTVSS
notes: also called hIFNgR1 VHH
On to B6, for which the binding result in test [2] and in test [3] was “binds” in each case.

B7: DR916 (VHH)
VHH: EVQLVESGGGLVQPGGSLRLSCTASGRPRTTYAMGWFRQAPGKEREIVAAISKAGGSTYVADSAKGRFAISKDNAKNTVYLQMNSLKPEDTAVYYCAARAGFAAQIFEYDYWGQGTLVTVSS
notes: also called hIFNgR1 VHH
Consider B7, for which the binding result in test [2] and in test [3] was “binds” each time.

B8: DR909 (VHH)
VHH: EVQLVESGGGLVQAGGSLRLSCAASGRTFGTSFGALSMGWFRQAPGKEREFVAAITRNTGRTFYADSVKDRFTISRDNAKNTASLQMNSLEPEDTAVYICAATNSYDDLRRSYAYNYWGQGTQVTVSS
notes: also called hIFNgR1 VHH
Consider B8, for which the binding result in test [1] and in test [2] was “binds” each time.

B9: DR920 (VHH)
VHH: EVQLVESGGGLVQAGGSLRLSCAASGRSFANYAMGWFRQAPGKERETVAAISRGGGSTWYADSVKGRFTISKDNAKNTVYLQMNSLKPEDTAIYYCAARSYSGSYTYSFGEYDYWGQGTQVTVSS
notes: also called hIFNgR1 VHH
Regarding B9, the binding result in test [2] and in test [3] was “binds” in each case.

B10: DR910 (VHH)
VHH: EVQLVESGGGLVQTGGSLRLSCAASGRTFSSYAMAWFRQAPGKEREFVAAISILGGSADYEDSVQGRFTISRDNAKNTMYLQMNSLKPEDTAVYYCAARRPAPSDSYWSSTSYAYWGQGTLVTVSS
notes: also called hIFNgR1 VHH
As for B10, the binding result in test [1] and in test [2] was “binds” in each case.

B11: DR904 (VHH)
VHH: EVQLVESGGGLVQAGGSLRLSCEASESILSINTMGWFRQAPGKQRELVAAISSGGSTNYADSVKGRFTISRDNAKNTVYLQMNSLKPEDTAVYYCDADRAYYKGQGTQVTVSS
notes: also called hIFNgR1 VHH
For B11, the binding result in test [3] was “binds”.

B12: DR914 (VHH)
VHH: EVQLVESGGGLVQAGGSLTLSCVASGRAFSNSAMAWFRQTPGKEREFVSAISRGGGSTDYADSVKGRFTISKDNAKNTVYLQMNSLKPEDTAVYYCAMRYYSGRYYESLEYDYWGQGTQVTVSS
notes: also called hIFNgR1 VHH
With B12, the binding result in test [2] and in test [3] was “binds” throughout.

B13: DR908 (VHH)
VHH: EVQLVESGGGLVQAGGSLRVTCAASGRTFTSLAMGWFRQAPGKEREFVAAISRSGGSTDYADSVKGRFFISRDNAKSTLYLQMSSLKPEDTAVYYCAARDYSTLQYYNEYEYSDWGQGTQVTVSS
notes: also called hIFNgR1 VHH
For the molecule B13, the binding result in test [1] and in test [2] was “binds” throughout.

B14: DR913 (VHH)
VHH: EVQLVESGGGLVQAGGFLRLSCAASGRTFSSYAMGWFRQIPGKERELVAAISSWSGGSTYYADSVKGRFTISRDNAKNTVYLQMLSLKPEDTAVYYCTTGDYYSDYFKYDNENWGKGTQVTVSS
notes: also called hIFNgR1 VHH
Turning to B14, the binding result in test [2] and in test [3] was “binds” each time.

B15: DR921 (VHH)
VHH: QVQLVESGGGLVQAGDSLRLSCAASGRTFTFSTHNMGWFRQAPGKEREFVGGIMWTSRASYADSVKGRFTVSRDNAKNTVYLQMNSLKPEDTAVYYCAAAWYGNSGASYDYWGQGTQVTVSS
notes: also called hIFNgR1 VHH
Consider B15, for which, in test [3], the binding result is on record as “binds”.

B16: DR924 (VHH)
VHH: QVQLVESGGGLVQAGGSLRLSCTASGRTFSRYAMGWFRQAPGKEREFVATISRSGGTTSYANSVKGRFTISRDNAKNTVYLQMNSLKTEDTAVYNCAARDGPAMGVFGSDYDYWGQGTLVTVSS
notes: also called hIFNgR1 VHH
With B16, the binding result in test [2] and in test [3] was “binds” each time.

B17: DR907 (VHH)
VHH: EVQLVESGGGLVQAGGSLRLSCAASGRTFSNYAMGWFRQAPGNEREFVAAINWNIGSTYYADSVKGRFTISRDNAKNTVYLQMNSLKPEDTAVYYCGAVWPTGRLRVDSEYDYWGQGTQVTVSS
notes: also called hIFNgR1 VHH
Regarding B17, the binding result in test [1] and in test [2] was “binds” in each case.

B18: DR905 (VHH)
VHH: EVQLVESGGGLVQAGGSLRLSCVASGRTFTGYAMGWFRQAPGKEREFVAVITWSGATTYYSASVKGRFTLSRDNAKNTVYLQMNSLKSEDTAVYYCAIRIRDGVSPENPNEYGYWGQGTQVTVSS
notes: also called hIFNgR1 VHH
For the molecule B18, the binding result in test [1] and in test [2] was “binds” throughout.

B19: DR926 (VHH)
VHH: EVQLVESGGGLVQAGGSLRLSCAASGRTFSRYAMNWFRQAPGKEREFVAAISWSSGNTYVADSVKGRFTISRDNAKNTMYLQMNNLAPEDTAVYYCAATTIATMSDENTYWGQGTQVTVSS
notes: also called hIFNgR1 VHH
For B19, the binding result in test [2] and in test [3] was “binds” in each case.

B20: DR915 (VHH)
VHH: EVQLVESGGGLVQAGGSLRLSCAAARRTLHNFAMAWFRQAPGKEREFVAAISKGGGSADYADSVKGRFTISRDNAKNTVYLQMNSLKPEDTAVYYCAANDLASYSDSSYTSTSRYDYWGQGTQVTVSS
notes: also called hIFNgR1 VHH
In the case of B20, the binding result in test [2] and in test [3] was “binds” in each case.

B21: DR906 (VHH)
VHH: EVQLVESGGGLVQAGGSLRLSCAASGSTFSTYVMGWFRQAPGKEREFVAAISRSGGTTTYADSVKGRFDISRDNGKNTLFLQMNSLIPEDTAAYYCAARAGPAIGRTANDYHSWGQGTLVTVSS
notes: also called hIFNgR1 VHH
As to B21, the binding result in test [1] and in test [2] was “binds” in each case.

B22: DR912 (VHH)
VHH: EVQLVESGGGLVQAGGSLRLSCAPSGRTFSSYAMAWFRQPPGKEREFVAAITVSGASTYYADSVKGRFTISRDNAKNSMYLQMNSLKPEDTAVYYCAAGGPGTIFPDYDYWGQGTQVTVSS
notes: also called hIFNgR1 VHH
On to B22, for which the binding result in test [2] and in test [3] was “binds” throughout.

B23: DR903 (VHH)
VHH: EVQLVESGGGLVQAGGSLRLSCAASGRIASDYTRGWFRQAPGKEREFVAAIIRSVGDSYYADSVKGRFTISIDNAENTVYLQMNSLKPEDTAVYYCAVGGHLYYGSRWRYPASYDYWGQGTQVTVSS
notes: also called hIFNgR1 VHH
With B23, the binding result in test [2] and in test [3] was “binds” in each case.

B24: DR919 (VHH)
VHH: EVQLVESGGGLVQPGGFLRLSCAASRRTLSTYAMGWFRQAPGKEREFVAAISWRSGNTYYADSVKGRFTISRDNAKNTMYLQMNSLKPEDTAVYYCAANEVATMSGPHDHWGQGTLVTVSS
notes: also called hIFNgR1 VHH
For the molecule B24, the binding result in test [3] is on record as “binds”.
